The text below walks through data of PMC5550427, “A family of archaea-like carboxylesterases preferentially expressed in the symbiotic phase of the mycorrhizal fungus Tuber melanosporum” (Scientific Reports, 2017).

By Km is commonly meant the substrate concentration at which the rate is half of its maximum. By stoichiometry N is commonly meant the number of molecules, sites or subunits per partner or assembly. A word on the Vmax: it is the rate approached at saturating substrate. The kcat is the maximal rate divided by the concentration of active sites. For orientation: kcat/Km means the turnover number divided by the Michaelis constant.

Data set [1] deals with T1, TmelEST1.
T1 construct: signal peptide (first 18 residues) removed; N-terminal 6xHis cut with thrombin; E. coli BL21-CodonPlus(DE3)-RIL; ~35 kDa subunit, dimer (~65 kDa); salt-bridge residues Glu284, Arg297; Arg242
Put plainly: pNP release at […] nm, Michaelis-Menten fit. To be noted: 25 mM Na-phosphate pH 7.0, 25 °C; Triton X-100 stabilized enzyme. Type of data set: biochemical, Tuber melanosporum.

For data set [2], the system named is T2, TmelEST3.
T2 construct: signal peptide (first 18 residues) removed; N-terminal 6xHis cut with thrombin; E. coli BL21-CodonPlus(DE3)-RIL; ~35 kDa subunit, dimer (~65 kDa); salt-bridge residues Glu291, Arg304
As to the kind of experiment: pNP release at […] nm, Michaelis-Menten fit. It counts as biochemical, Tuber melanosporum. To be noted: 25 mM Na-phosphate pH 7.0, 25 °C; Triton X-100 stabilized enzyme.

Data set [3] has as its system T2, TmelEST3. As to the kind of experiment: pH-shift assay with phenol red, A560. Type of data set: biochemical, Tuber melanosporum. The settings on record: 2 mM Tris-HCl pH 8, 25 °C; 1-30 mM substrate; preliminary data; read-out: estimated Km.
Data set [4] concerns T1, TmelEST1. Put plainly: pH-shift assay with phenol red, A560. It counts as biochemical, Tuber melanosporum. To be noted: 2 mM Tris-HCl pH 8, 25 °C; 0.25-5 mM substrate; read-out: apparent Km.
Data set [5] concerns the target TmelEST1 (Tuber melanosporum). Put plainly: SEC; Superdex 200 HR10/30, 200 µg purified protein per run, 25 mM Tris-HCl pH 7.5, 150 mM NaCl, non-denaturing; size unchanged on β-mercaptoethanol supplementation.
Data set [6] concerns the target TmelEST3 (Tuber melanosporum). The data set is described as above.
The target in data set [7] is TmelEST2 (Tuber melanosporum). Described as above.
Substrate in data set [8]: CCCCC(=O)Oc1ccc([N+](=O)[O-])cc1
Put plainly: purified protein. Type of data set: biochemical, Tuber melanosporum. The settings on record: 25 mM Na-phosphate pH 7.0, 25 °C, Triton X-100 stabilized enzyme.

Substrate in data set [9]: CCCC(=O)Oc1ccc([N+](=O)[O-])cc1
Put plainly: purified protein. It counts as biochemical, Tuber melanosporum. To be noted: 25 mM Na-phosphate pH 7.0, 25 °C, Triton X-100 stabilized enzyme.

Substrate in data set [10]: COC(=O)c1ccccc1O
As to the kind of experiment: pH-shift assay with phenol red, A560. It counts as biochemical, Tuber melanosporum. To be noted: 2 mM Tris-HCl pH 8, 25 °C, 1-30 mM substrate, preliminary data.

In the case of `CCCC(=O)Oc1ccc([N+](=O)[O-])cc1` [C4, p-nitrophenyl-butyrate], the Km in the data set with TmelEST1 [1] is 140 ± 14 µM; with TmelEST3 [2] it was 109 ± 6 µM.
In the case of `COC(=O)Cc1c[nH]c2ccccc12` [indole-3-acetic methyl ester], the Km with TmelEST3 [3] is approximately 3350 µM.
For the molecule `CCOC(=O)/C=C/c1ccc(O)c(OC)c1` [ethyl ferulate], the Michaelis constant (Km) in the data set on TmelEST1 [4] amounted to 880 µM.
Consider `CCCCC(=O)Oc1ccc([N+](=O)[O-])cc1` [C5, pNP-valerate], for which the results for the Km in the data set with TmelEST1 [1] and with TmelEST3 [2] were 160 ± 20 µM and 137 ± 20 µM, respectively.
Regarding TmelEST1 (enzyme), the stoichiometry N in data set [5] worked out at 2.
As to TmelEST3 (enzyme), in [6], the stoichiometry N is 2.
As for TmelEST2 (enzyme), the stoichiometry N in data set [7] stood at 2.

B1: TmelEST2 (Tuber melanosporum Mel28) (protein)
chain: ETPAPSCPVTNVTTPQLDPITQAYADAISSRPSLFAFPLPEIRDGYQSNVSDPSTEFTTKILSLPVGPTGNVTAYLYKPVSGEREKGKDLLPVIAYFHGGGWVFGGPKSYRGLITNLIRESGAAVFFVDYTLTPKVAYPVPNEQCYAAVQWLLEHGEKLGVDPTNMGFGGDSAGGELSSSVSLLSIKRKTPLPKFQVLIYPATDLACESATFKEFPNGPGLTTDEIRFAASLFTPDPKSRLEDVASPGRASDEDLAKFPETLIVVAEVDPIRQQGEDFGRRLQKLGVRAAIIRVLGTIHGFASIDVLSEAPGAKATIELIGYKFKKALH
notes: signal peptide (first 18 residues) removed; N-terminal 6xHis cut with thrombin; E. coli BL21-CodonPlus(DE3)-RIL; ~35 kDa subunit, dimer (~65 kDa); structure residues 34-347; triad Ser190, Asp287, His317
For B1, in the data set “purified protein [8]”, the Km amounted to 44 ± 7 µM, the Vmax was determined as 4790 µmol/min/mg, the catalytic constant (kcat) was 2870 s⁻¹ and the catalytic efficiency (kcat/Km) worked out at 6.53e+07 M⁻¹ s⁻¹. Also, in “purified protein [9]”, the Km was 49 ± 8 µM, the Vmax was 3840 µmol/min/mg, the kcat came to 2300 s⁻¹ and the kcat/Km amounted to 4.7e+07 M⁻¹ s⁻¹. In data set [10], the Km worked out at 750 µM and the turnover number (kcat) stood at 1 s⁻¹.
